Experimental data: patent publication US20220401476A1

Legend:
[1] = molecular target: rhIL-18 (IL-18, #9124-IL-010, R&D Systems) (human) (UniProt Q14116); assay: cell-based or functional assay
[2] = molecular target: CD19 surface antigen on Raji lymphoma target-cells (#CCL-86, ATCC) (UniProt P15391); assay: cell-based or functional assay
Chain of UniProt P15391 (P15391 20-556 limits assumed): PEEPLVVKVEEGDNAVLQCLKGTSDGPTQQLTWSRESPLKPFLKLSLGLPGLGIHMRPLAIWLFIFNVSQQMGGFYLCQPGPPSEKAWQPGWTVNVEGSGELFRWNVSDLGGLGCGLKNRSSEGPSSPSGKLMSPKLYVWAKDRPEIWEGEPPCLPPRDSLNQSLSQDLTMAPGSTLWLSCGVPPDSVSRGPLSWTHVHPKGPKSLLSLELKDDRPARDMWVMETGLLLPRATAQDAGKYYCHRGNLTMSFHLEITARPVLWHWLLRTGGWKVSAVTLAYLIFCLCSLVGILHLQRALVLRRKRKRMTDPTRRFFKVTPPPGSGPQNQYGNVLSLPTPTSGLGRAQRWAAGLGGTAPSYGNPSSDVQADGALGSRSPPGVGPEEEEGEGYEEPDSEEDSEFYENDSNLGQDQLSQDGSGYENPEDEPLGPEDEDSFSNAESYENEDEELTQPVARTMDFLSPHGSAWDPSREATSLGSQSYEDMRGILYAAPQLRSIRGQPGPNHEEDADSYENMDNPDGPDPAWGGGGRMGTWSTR

Chain of UniProt Q14116 (Q14116 37-193 limits assumed): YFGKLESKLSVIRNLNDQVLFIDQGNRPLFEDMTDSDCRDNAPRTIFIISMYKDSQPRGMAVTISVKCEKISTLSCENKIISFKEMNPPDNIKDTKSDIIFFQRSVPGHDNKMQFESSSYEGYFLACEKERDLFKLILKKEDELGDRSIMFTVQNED

IL-18BP-mediated inhibition (%) of IFN-γ in Tumor + CAR-T + IL-18 + IL-12 culture, day 1 [1]	IL-18BP-mediated inhibition (%) of IFN-γ in Tumor + CAR-T + IL-18 + IL-12 culture, day 2 [1]	IL-18BP-mediated inhibition (%) of IFN-γ in Tumor + CAR-T + IL-18 + IL-12 culture, day 3 [1]	IL-18BP-mediated inhibition (%) of IFN-γ in Tumor + CAR-T + IL-18 culture, day 1 [1]	IL-18BP-mediated inhibition (%) of IFN-γ in Tumor + CAR-T + IL-18 culture, day 2 [1]	IL-18BP-mediated inhibition (%) of IFN-γ in Tumor + CAR-T + IL-18 culture, day 3 [1]	reduction of IFN-γ production boosted by rhIL-12 and rhIL-18, average over three days [1]	Mean concentration (pg/mL) of IFN-γ in culture medium, Tumor + CAR-T, day 1 [2]	Mean cumulative concentration (pg/mL) of IFN-γ in culture medium, Tumor + CAR-T, day 2 [2]	Mean cumulative concentration (pg/mL) of IFN-γ in culture medium, Tumor + CAR-T, day 3 [2]	Substance
82%	79%	75%	100%	92%	79%	80%				recombinant human IL-18BP (rhIL-18BP, Tadekinig alfa)
							6910 pg/mL	21500 pg/mL	32700 pg/mL	CD19-specific CAR of CD19SCFV-CD28-4-1BB-CD3 CAR-T-cells (#PM-CAR1003-10M, ProMAB)
